Patent US20260049134A1

Molecular target: SELL (L-Selectin)
Experiment: ELISA on coated SELL-Fc-His, 150 ng IgG1; None 0.096

SELL (L-Selectin), sequence (chain, as listed by the source limits assumed): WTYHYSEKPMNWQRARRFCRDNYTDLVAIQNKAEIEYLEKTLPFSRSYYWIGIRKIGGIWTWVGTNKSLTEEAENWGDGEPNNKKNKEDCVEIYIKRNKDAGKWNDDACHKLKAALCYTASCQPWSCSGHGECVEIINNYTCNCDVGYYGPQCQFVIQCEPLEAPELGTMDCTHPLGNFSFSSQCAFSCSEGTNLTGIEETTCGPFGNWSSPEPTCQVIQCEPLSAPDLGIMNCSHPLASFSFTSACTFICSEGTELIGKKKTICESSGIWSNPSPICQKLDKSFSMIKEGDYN

B1: HW-28 chimeric rabbit-human IgG1 LA/LA/PG (antibody, V domains shown)
VH: QKQLVESGGRLVTPGTPLTLTCTASGFSLSSNAMSWVRQAPGEGLQWIGTISSGGSTYYASWAKGRFTISKTSTTVTLKMTSLTTEDTATYFCARGADLHRLWGPGTLVTVSS
VL: SFVLTQPASVQVNLGQTVSLTCTGKPLSRSFASWYQQKPGQAPVLVIYRDTSRPSGVPDRFSGSSSGNTATLTISGAQAGDEADYYCATSDGSGSSYQYVFGGGTQLTVTG
An ELISA Absorbance (405 nm-570 nm) of 0.188 was found for B1 in this work.
